Experimental findings from patent US20210403582A1 (JACOBIO PHARMACEUTICALS, published 2021) are described below.

Assay [1] concerns the target T1, human LIF protein (human, UniProt P15018 23-202).
T1 construct: Bought recombinant protein (Sino Biological / Yiqiao Shenzhou 14890-HNAH) in most assays; also called recombinant human LIF protein; rhLIF
As to the kind of experiment: KinExA 4000, solution equilibrium. As to the method:
The affinity of the purified monoclonal antibodies to the recombinant human LIF protein was determined by KinExA 4000. 200 mg PMMA hard beads were added with 30 μg of the 38E10E1C11 antibody and additional adding coating solution to 1 mL. The buffer composition is 1 xPBS, pH 7.4, 0.02% NaN3. And make sure that the beads were completely suspended in the solution, and rotated for 2 h at room temperature. The beads were naturally settled or quickly centrifuged at low speed. The supernatant was removed and the beads were blocked with PBS containing 1% BSA. 15 mL of 300 pM antigen solution and 15 mL of 240 pM Ab2 (38E10E1C11) solution were prepared. 0.6 mL of 300 pM antigen and 0.6 mL of 240 pM antibody Ab2 (38E10E1C11) were put into different sample tubes separately. The samples in the two tubes were well mixed and put together into one tube, the concentration of the antigen was 150 pM and the concentration of antibody Ab2 (38E10E1C11) was 120 pM at this time, and the solution was placed in the corresponding position in the tube holder. […] Each group was added with 1 μg/L1 Streptavidin Protein, DyLight 650 Solution, and was detected on machine set to incubate for 24 hours. In the KinExatm Pro software, the equilibrium dissociation constant (Kd) for n-curve analysis was calculated by the unknown ligand model, and the results are shown in FIG. 4.
For orientation: In KinExA the mixture passes briefly over coated beads that capture the unbound partner.

The target in assay [2] is recombinant machin LIF protein (machin, UniProt A0A2K5UCA8 23-202). In words: ELISA, machin LIF coated at 0.5 µg/mL, A450. As to the method: The recombinant machin LIF protein (purchased from Sino biological) was diluted to 0.5 μg/mL, and was coated on the enzyme label plate, 100 μL of protein was added into every well, and incubated overnight in 4° C. The enzyme label plates were taken out next day, and the liquid was discarded, and were washed with PBST three times and blocked with 2% BSA in PBS for 1 h at room temperature, then washed with PBST three times, and added anti-human LIF antibodies 38E10E1C11, 5D8 and P36-033 at different concentrations and incubated for 1 h at room temperature. The liquid was discarded, and the plates were washed with PBST four times. The plates were added with HRP-labeled goat anti-mouse Fab antibody or goat anti-human FC antibody and incubated for 1 h at room temperature. Then the liquid was discarded, and the plates were washed with PBST four times and incubated with TMB colored solution in 10 minutes at room temperature. Stop color development by adding 2 mol/L H₂SO₄, and the absorption value at 450 nm is quantitated using an automated plate photometer, and the results were shown in FIG. 3.
On the technique in general: In an ELISA, binding on a coated surface is turned into a signal by an enzyme label.

The target of assay [3] is recombinant mouse LIF protein (mouse, UniProt P09056 24-203). As to the kind of experiment: ELISA, mouse LIF coated at 1 µg/mL, A450. The protocol: The recombinant mouse LIF protein (purchased from ACRO Biosystems) was diluted to 1 μg/mL, and was coated on the enzyme label plate, 100 μL of protein was added into every well, and incubated overnight in 4° C. The enzyme label plates were taken out next day, and the liquid was discarded, and were washed with PBST three times and blocked with 2% BSA in PBS for 1 h at room temperature, then washed with PBST three times, and added anti-human LIF antibodies 38E10E1C11, 5D8 and P36-033 at different concentrations and incubated for 1 h at room temperature. The liquid was discarded, and the plates were washed with PBST four times. The plates were added with HRP-labeled goat anti-mouse Fab antibody or goat anti-human FC antibody and incubated for 1 h at room temperature. Then the liquid was discarded, and the plates were washed four times with PBST and incubated with TMB colored solution in 10 minutes at room temperature. Stop color development by adding 2 mol/L H₂SO₄, and the absorption value at 450 nm is quantitated using an automated plate photometer, and the results were shown in FIG. 2.

A further assay addresses human IL-6 (human, UniProt P05231 30-212, limits assumed). As to the kind of experiment: ELISA, human IL-6 coated at 1 µg/mL, HRP goat anti-mouse Fab, A450. The protocol: (§1) After washed four times with PBST, HRP-labeled goat anti-mouse Fab secondary antibodies were added and incubated at room temperature for 1 h. After washed four times with PBST, TMB colored solution was added and color developing for 10 min at room temperature. The absorption value at 450 nm was read by the enzyme maker. The data were analyzed and plotted using Origin pro 9 software.

Assay [4] deals with T1, human LIF protein. As to the kind of experiment: competition ELISA, LIF coated, competitor LIFR-Fc 0.6125 ug/mL detected with anti-human Fc.
The target in another assay is T2, human OSM (human, UniProt P13725 26-221, limits assumed).
T2 sequence (looked up): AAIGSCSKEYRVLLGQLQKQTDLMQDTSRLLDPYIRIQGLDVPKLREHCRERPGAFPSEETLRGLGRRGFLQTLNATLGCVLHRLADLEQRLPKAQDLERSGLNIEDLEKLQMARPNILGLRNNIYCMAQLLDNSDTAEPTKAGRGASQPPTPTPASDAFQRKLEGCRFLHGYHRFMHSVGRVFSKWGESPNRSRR
As to the kind of experiment: ELISA, human OSM coated at 1 µg/mL, HRP goat anti-mouse Fab, A450. The protocol:
as §1

Another assay deals with T3, human CNTF (human, UniProt P26441 1-200, limits assumed).
T3 sequence (looked up): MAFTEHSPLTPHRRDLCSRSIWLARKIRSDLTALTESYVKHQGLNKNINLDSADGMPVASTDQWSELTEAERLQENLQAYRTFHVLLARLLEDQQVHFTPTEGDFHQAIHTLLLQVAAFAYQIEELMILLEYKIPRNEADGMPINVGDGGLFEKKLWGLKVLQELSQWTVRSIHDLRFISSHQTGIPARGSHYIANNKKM
In words: ELISA, human CNTF coated at 1 µg/mL, HRP goat anti-mouse Fab, A450. The protocol: as §1

T1 sequence (P15018 23-202 limits assumed): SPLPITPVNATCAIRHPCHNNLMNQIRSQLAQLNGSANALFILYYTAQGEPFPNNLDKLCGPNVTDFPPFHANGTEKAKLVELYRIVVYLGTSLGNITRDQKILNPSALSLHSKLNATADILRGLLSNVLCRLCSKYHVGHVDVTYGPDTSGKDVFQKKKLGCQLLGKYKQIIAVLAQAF
Chain of human IL-6 (P05231 30-212 limits assumed): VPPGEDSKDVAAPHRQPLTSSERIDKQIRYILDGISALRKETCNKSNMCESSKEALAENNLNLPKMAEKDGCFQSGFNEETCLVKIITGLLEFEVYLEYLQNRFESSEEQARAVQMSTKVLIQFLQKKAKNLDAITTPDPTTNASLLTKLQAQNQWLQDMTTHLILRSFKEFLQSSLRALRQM
Chain of recombinant machin LIF protein (A0A2K5UCA8 entry or part of it limits assumed): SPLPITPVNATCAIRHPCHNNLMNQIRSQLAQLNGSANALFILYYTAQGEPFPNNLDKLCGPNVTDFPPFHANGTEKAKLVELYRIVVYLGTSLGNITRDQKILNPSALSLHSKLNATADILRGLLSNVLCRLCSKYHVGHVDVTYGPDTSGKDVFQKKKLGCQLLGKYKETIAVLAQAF

B1: 38E10E1C11 antibody (antibody, mouse IgG1, kappa)
heavy: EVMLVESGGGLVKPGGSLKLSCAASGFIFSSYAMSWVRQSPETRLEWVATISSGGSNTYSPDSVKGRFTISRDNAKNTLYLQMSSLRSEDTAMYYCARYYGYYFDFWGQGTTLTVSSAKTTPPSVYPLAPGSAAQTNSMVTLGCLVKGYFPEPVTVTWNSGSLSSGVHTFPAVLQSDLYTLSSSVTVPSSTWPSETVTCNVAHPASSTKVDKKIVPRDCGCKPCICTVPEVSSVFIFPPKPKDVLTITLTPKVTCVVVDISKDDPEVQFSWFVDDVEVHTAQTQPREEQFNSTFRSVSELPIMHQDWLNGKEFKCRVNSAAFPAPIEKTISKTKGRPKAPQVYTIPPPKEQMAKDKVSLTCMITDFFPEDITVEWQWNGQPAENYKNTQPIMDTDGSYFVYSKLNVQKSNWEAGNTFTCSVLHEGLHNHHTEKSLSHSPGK
light: DIHMTQSPASLSASVGETVTITCRASENIYSYLAWYQQKQGKSPQLLVYNAKTLAEGVPSRFSGSGSGTQFSLKINSLQPEDFGSYYCQHHYVTPLTFGAGTKLELKRADAAPTVSIFPPSSEQLTSGGASVVCFLNNFYPKDINVKWKIDGSERQNGVLNSWTDQDSKDSTYSMSSTLTLTKDEYERHNSYTCEATHKTSTSPIVKSFNRNEC
notes: Mouse IgG1, kappa light chain; also called 38E10E1C11 mAb; mAb38E10E1C11
For B1, the Kd with human LIF protein [1] came to 4.52 pM. Besides, the “EC50 (read off the curve)” value in assay [2] is approximately 0.07 µg/mL. Moreover, the binding result in assay [3] is given as “no binding (tested: 100 µg/mL (log 2))”; with human IL-6, “no binding (tested: 25 ug/ml)”; with human OSM, “no binding (tested: 25 ug/ml)”; with human CNTF, “no binding (tested: 25 ug/ml)”. Moreover, in the assay with human LIF protein [4], the IC50 is 0.074 µg/mL.

A word on the Kd: it is the concentration at which binding is half-saturated. Read a high Kd as lower affinity. The term EC50 (read off the curve) denotes the concentration needed to bring the measured effect to its halfway point. One may read the IC50 as the concentration that inhibits the measured activity by half.
